Biological target: T1, GFP-SSH1 (human, UniProt Q8WYL5 1-1049)
T1 construct: Slingshot homolog 1 (SSH1); also called EGFP-SSH1; WT SSH1; source: HeLa, transiently transfected, in fixed cells
T1 sequence (looked up): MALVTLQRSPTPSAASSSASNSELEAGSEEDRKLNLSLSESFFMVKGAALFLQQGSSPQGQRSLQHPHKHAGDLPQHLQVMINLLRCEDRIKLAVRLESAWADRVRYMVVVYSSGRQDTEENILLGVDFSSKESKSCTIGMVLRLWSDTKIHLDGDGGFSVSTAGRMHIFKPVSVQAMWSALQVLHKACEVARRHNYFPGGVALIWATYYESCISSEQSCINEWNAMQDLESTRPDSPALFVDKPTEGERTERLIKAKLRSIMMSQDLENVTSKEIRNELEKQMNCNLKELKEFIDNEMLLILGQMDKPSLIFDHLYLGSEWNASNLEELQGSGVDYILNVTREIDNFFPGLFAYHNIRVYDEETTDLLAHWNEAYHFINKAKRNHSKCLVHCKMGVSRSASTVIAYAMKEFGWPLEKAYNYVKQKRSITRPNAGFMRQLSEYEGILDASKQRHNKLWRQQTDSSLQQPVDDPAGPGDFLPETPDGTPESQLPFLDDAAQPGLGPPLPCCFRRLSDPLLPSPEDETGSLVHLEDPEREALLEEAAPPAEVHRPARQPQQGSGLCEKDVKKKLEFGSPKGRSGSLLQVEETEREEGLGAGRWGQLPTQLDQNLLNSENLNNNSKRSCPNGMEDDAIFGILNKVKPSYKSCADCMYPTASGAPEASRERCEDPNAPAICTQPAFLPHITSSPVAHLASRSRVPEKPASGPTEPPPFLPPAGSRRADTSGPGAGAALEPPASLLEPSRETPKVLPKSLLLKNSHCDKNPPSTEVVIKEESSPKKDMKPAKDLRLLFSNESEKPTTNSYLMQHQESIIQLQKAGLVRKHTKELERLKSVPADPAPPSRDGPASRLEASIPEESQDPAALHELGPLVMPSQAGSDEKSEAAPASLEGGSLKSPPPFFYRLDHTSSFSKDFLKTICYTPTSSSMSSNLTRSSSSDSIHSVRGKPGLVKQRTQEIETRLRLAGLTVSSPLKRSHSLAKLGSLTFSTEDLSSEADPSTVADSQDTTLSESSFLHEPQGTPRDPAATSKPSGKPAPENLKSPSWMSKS
Assay: proximity ligation; in situ PLA (Duolink) in transiently transfected HeLa cells, fixed 24 h after transfection; rabbit GFP-specific and mouse Flag-specific primary antibodies; spot area per cell quantified by automated microscopy
Conditions: partners not purified

- area covered by PLA spots, against neighbouring GFP-negative cells: ~4 fold
B1: Flag-NOD1 (receptor, human, UniProt Q9Y239 1-953, looked up)
chain: MEEQGHSEMEIIPSESHPHIQLLKSNRELLVTHIRNTQCLVDNLLKNDYFSAEDAEIVCACPTQPDKVRKILDLVQSKGEEVSEFFLYLLQQLADAYVDLRPWLLEIGFSPSLLTQSKVVVNTDPVSRYTQQLRHHLGRDSKFVLCYAQKEELLLEEIYMDTIMELVGFSNESLGSLNSLACLLDHTTGILNEQGETIFILGDAGVGKSMLLQRLQSLWATGRLDAGVKFFFHFRCRMFSCFKESDRLCLQDLLFKHYCYPERDPEEVFAFLLRFPHVALFTFDGLDELHSDLDLSRVPDSSCPWEPAHPLVLLANLLSGKLLKGASKLLTARTGIEVPRQFLRKKVLLRGFSPSHLRAYARRMFPERALQDRLLSQLEANPNLCSLCSVPLFCWIIFRCFQHFRAAFEGSPQLPDCTMTLTDVFLLVTEVHLNRMQPSSLVQRNTRSPVETLHAGRDTLCSLGQVAHRGMEKSLFVFTQEEVQASGLQERDMQLGFLRALPELGPGGDQQSYEFFHLTLQAFFTAFFLVLDDRVGTQELLRFFQEWMPPAGAATTSCYPPFLPFQCLQGSGPAREDLFKNKDHFQFTNLFLCGLLSKAKQKLLRHLVPAAALRRKRKALWAHLFSSLRGYLKSLPRVQVESFNQVQAMPTFIWMLRCIYETQSQKVGQLAARGICANYLKLTYCNACSADCSALSFVLHHFPKRLALDLDNNNLNDYGVRELQPCFSRLTVLRLSVNQITDGGVKVLSEELTKYKIVTYLGLYNNQITDVGARYVTKILDECKGLTHLKLGKNKITSEGGKYLALAVKNSKSISEVGMWGNQVGDEGAKAFAEALRNHPSLTTLSLASNGISTEGGKSLARALQQNTSLEILWLTQNELNDEVAESLAEMLKVNQTLKHLWLIQNQITAKGTAQLADALQSNTGITEICLNGNLIKPEEAKVYEDEKRIICF
notes: NOD1; the Flag-tagged plasmid is not described in the methods; source: HeLa, transiently transfected, in fixed cells
